Laboratory results as given in patent US20050069542A1 (Human Genome Sciences, published 2005).

T1: flag-tagged soluble TL3 (amino acids 105-251 of SEQ ID NO:234) (Homo sapiens (Human), UniProt O75888 105-250)
T1 construct: Heterologous flag-tagged control protein, immobilized in the ELISA; also called flagged tagged TL-3; not shown: Flag tag
T1 sequence: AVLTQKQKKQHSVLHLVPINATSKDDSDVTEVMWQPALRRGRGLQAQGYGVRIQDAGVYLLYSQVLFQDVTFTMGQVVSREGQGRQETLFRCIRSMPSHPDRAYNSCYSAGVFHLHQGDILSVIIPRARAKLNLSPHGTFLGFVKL


What follows are binders tested against T1, flag-tagged soluble TL3 (amino acids …) (assay: phage ELISA on immobilized flag-tagged soluble TL3).
Procedure: The individual phage isolates in the panel of phage, each phage expressing a unique scFv that bound to flag-tagged GMAD, were tested to ensure specificity for GMAD using an ELISA assay. The scFvs were tested in an ELISA for their ability to bind a heterologous flag-tagged protein, in this case—immobilized soluble TL3 (amino acids 105-251 of SEQ ID NO:234, GenBank Accesion Number NP_{—}003799, also described in International Patent Application Publication Number WO97/33902 and WO2001/96528 which are herein incorporated by reference in their entireties).

binding result	Binder
no binding	GMBC603 (scFv) scFv: QVQLVQSGGGVVRPGGSLRLSCAASGFTFDDYGMSWVRQAPGKGLEWVSGINWNGGSTGYADSVKGRFTISRDNAKNSLYLQMNSLRAEDTALYYCAKDLNYDFWSGSGMDVWGRGTLVTVSSGGGGSGGGGSGGGGSQSVLTQPASVSGSPGQSITISCTGTSSDVGGYNYVSWYQQHPGKAPKLMIYEGSKRPSGVSNRFSGSKSGNTASLTISGLQAEDEADYYCSSYTTRSTRVFGGGTKLTVLG
no binding	GMBC692 (scFv) scFv: EVQLVQSGGGLVKPGGSLRLSCAASGFTFSDAWMNWVRQAPGKGLEWVGRIKSKGSGGTIDYAAPVKDRFTISRDDSKNTLYLQMNSLKTEDTALYYCTWDWDFYYGMNVWGRGTLVTVSSGGGGSGGGGSGGGGSQSVLTQPASVSGSPGQSITISCTGTSSDVGGYNYVSWYQQHPGKAPKLMIYEGSKRPSGVSNRFSGSKSGNTASLTISGLQAEDEADYYCSSYTTRSTRVFGGGTKLTVLG
no binding	GMBC620 (scFv) scFv: EVQLVESGGGLVKPGGSLRLSCAASGFTFSDAWMNWVRQAPGKGLEWVGRIKSKGSGGTIDYAAPVKDRFTISRDDSKNTLYLQMNSLKTEDTALYYCTWDWDFYYGMNVWGRGTMVTVSSGGGGSGGGGSGGGGSQSVLTQPASVSGSPGQSITISCTGTSSDVGGYNYVSWYQQHPGKAPKLMIYEGSKRPSGVSNRFSGSKSGNTASLTISGLQAEDEADYYCSSYTTRSTRVFGGGTKLTVLG
no binding	GMBC634 (scFv) scFv: QVQLVQSGGGLVKPGGSLRLSCAASGFTFSDAWMNWVRQAPGKGLEWVGRIKSKGSGGTIDYAAPVKDRFTISRDDSKNTLYLQMNSLKTEDTALYYCTWDWDFYYGMNVWGQGTLVTVSSGGGGSGGGGSGGGGSQSVLTQPASVSGSPGQSITISCTGTSSDVGGYNYVSWYQQHPGKAPKLMIYEGSKRPSGVSNRFSGSKSGNTASLTISGLQAEDEADYYCSSYTTRSTRVFGGGTKLTVLG
no binding	GMBC605 (scFv) scFv: QVQLVQSGGGLVKPGGSLRLSCETSGFKFSDAWMNWVRQAPGKGLEWVGRIKSKGSGGTIDYAAPVKDRFTISRDDSKNTLYLQMNSLKTEDTALYYCTWDWDFYYGMNVWGRGTLVTVSSGGGGSGGGGSGGGGSQSVLTQPASVSGSPGQSITISCTGTSSDVGGYNYVSWYQQHPGKAPKLMIYEGSKRPSGVSNRFSGSKSGNTASLTISGLQAEDEADYYCSSYTTRSTRVFGGGTKLTVLG
no binding	GMBC615 (scFv) scFv: EVQLVESGGGLVKPGGSLRLSCAASGFKFSDAWMNWVRQAPGKGLEWVGRIKSKGSGGTIDYAAPVKDRFTISRDDSKNTLYLQMNSLKTEDTALYYCTWDWDFYYGMNVWGKGTLVAVSSGGGGSGGGGSGGGGSQSVLTQPASVSGSPGQSITISCTGTSSDVGGYNYVSWYQQHPGKAPKLMIYEGSKRPSGVSNRFSGSKSGNTASLTISGLQAEDEADYYCSSYTTRSTRVFGGGTKLTVLG
no binding	GMBC645 (scFv) scFv: EVQLVESGGGLVKPGGSLRLSCAGSGFKFSDAWMNWVRQAPGKGLEWVGRIKSKGSGGTIEYAAPVKDRFIISRDDSKDTLYLQMNSLKTEDTALYYCTWDWDFYYGMNVWGRGTLVTVSSGGGGSGGGGSGGGGSQSVLTQPASVSGSPGQSITISCTGTSSDVGGYNYVSWYQQHPGKAPKLMIYEGSKRPSGVSNRFSGSKSGNTASLTISGLQAEDEADYYCSSYTTRSTRVFGGGTELTVLG
no binding	GMBC651 (scFv) scFv: EVQLVESGGGLVQPGGSLRLSCAASGFTFSDAWMNWVRQAPGKGLEWVGRIKSKGSGGTIDYAAPVKDRFTISRDDSKNTLYLQMNSLKTEDTALYYCTWDWDFYYGMNVWGRGTMVTVSSGGGGSGGGGSGGGGSQSVLTQPASVSGSPGQSITISCTGTSSDVGGYNYVSWYQQHPGKAPKLMIYEGSKRPSGVSNRFSGSKSGNTASLTISGLQAEDEADYYCSSYTTRSTRVFGGGTKLTVLG
no binding	GMBC664 (scFv) scFv: EVQLVETGGALVKPGGSLRLSCAASGFTFSDAWMNWVRQAPGKGLEWVGRIKSKGSGGTIDYAAPVKDRFTISRDDSKNTLYLQMNSLKTEDTALYYCTWDWDFYYGMNVWSRGTMVTVSSGGGGSGGGGSGGGGSQSVLTQPASVSGSPGQSITISCTGTSSDVGGYNYVSWYQQHPGKAPKLMIYEGSKRPSGVSNRFSGSKSGNTASLTISGLQAEDEADYYCSSYTTRSTRVFGGGTKLTVLG
no binding	GMBC660 (scFv) scFv: EVQLVQSGGGLVKPGGSLRLSCAASGFIFSDAWMNWVRQAPGKGLEWVGRIKSKGSGGTIDYAAPVKDRFTISRDDSKNTLYLQMNSLKTEDTALYYCTWDWDFYYGMNVWGQGTPVTVSSGGGGSGGGGSGGGGSQSVLTQPASVSGSPGQSITISCTGTSSDVGGYNYVSWYQQHPGKAPKLMIYEGSKRPSGVSNRFSGSKSGNTASLTISGLQAEDEADYYCSSYTTRSTRVFGGGTKLTVLG
no binding	GMBC607 (scFv) scFv: EVQLVQSGGGLVKPGGSLRLSCAASGFTFSDAWMNWVRQAPGKGLEWVGRIKSKGSGGTIDYAAPVKDRFTISRDDSKNMLYLEMNSLKTEDTALYYCTWDWDFYYGMNVWGQGTMVTVSSGGGGSGGGGSGGGGSQSVLTQPASVSGSPGQSITISCTGTSSDVGDYNYVSWYQQHPGKAPKLMIYEGSKRPSGVSNRFSGSKSGNTASLTISGLQAEDEADYYCSSYTTRSTRVFGGGTKLTVLG
no binding	GMBC658 (scFv) scFv: EVQLVQSGGGLVKPGGSLRLSCAASGFTFSDAWMNWVRQAPGKGLEWVGRIKSKGSGGTIDYAAPVKDRFTISRDDSKNTLYLQMNSLKTEDTALYYCTWDWDFYYGMNVWGRGTTVTVSSGGGGSGGGGSGGGGSQSVLTQPASVSGSPGQSITISCTGTSSDVGGYNYVSWYQQHPGKAPKLMIYEGSKRPSGVSNRFSGSKSGNTASLTISGLQAEDEADYYCSSYTTRSTRVFGGGTKLTVLG
no binding	GMBC616 (scFv) scFv: EVQLVESGGGLVKPGGSLRLSCAASGFTFSDAWMNWVRQAPGKGLEWVGRIKSKGSGGTTDYAAPVKDRFTISRDDSENTLYLQMNSLKTEDTAVYYCTWDHSYYYDMAVWGRGTLVTVSSGGGGSGGGGSGGGGSQSVLTQPPFVSGSPGQSITISCTGTSSDVGGYNYVSWYQQHPGKAPKLMIYEGSKRPSGVSNRFSGSKSGNTASLTISGLQAEDEADYYCSSYTTRSTRVFGGGTKLTVLG
no binding	GMBC649 (scFv) scFv: QVQLVQSGGGLVKPGGSLRLSCAASGFTFSDAWMNWVRQAPGKGLEWVGRIKSKGSGGTIDYAAPVKDRFTISRDDSKNTLYLQMNSLKTEDTALYYCTWDWDFYYGMNVWGRGTLVTVSSGGGGSGGGGSGGGGSQSVLTQPASVSGSPGQSITISCTGTSSDVGGYNYVSWYQQHPGKAPKLMIYEGSKRPSGVSNRFSGSKSGNTASLTISGLQAEDEADYYCSSYTTRSTRVFGGGTKLTVLG
no binding	GMBC625 (scFv) scFv: EVQLVQSGGGLVKPGGSLRLSCAASGFTFSDAWMNWVRQAPGKGLEWVGRIKSKRSGGTIDYAAPVKDRFTISRDDSKDTMYLQMNSLKTEDTALYYCTWDWDFYYGMNVWGQGTMVTVSSGGGGSGGGGSGGGGSQSVLTQPASVSGSPGQSITISCTGTSSDVGGYNYVSWYQQHPGKAPKLMIYEGSKRPSGVSNRFFGSKSGNTASLTISGLQAEDEADYYCSSYTTRSTRVFGGGTKLTVLG
no binding	GMBC614 (scFv) scFv: EVQLVQSGGGLVKPGGSLRLSCAASGFTFSDAWMNWVRQAPGKGLEWVGRIKSKGSGGTIDYAAPVKDRFTISRDDSKNTLYLQMNSLKTEDTALYYCTWDWDFYYGMNVWGRGTMVTVSSGGGGSGGGGSGGGGSQSVLTQPASVSGSPGQSITISCTGTSSDVGGYNYVSWYQQHPGKAPKLMIYEGSKRPSGVSNRFSGSKSGNTASLTISGLQAEDEADYYCSSYTTRSTRVFGGGTKLTVLG
no binding	GMBC654 (scFv) scFv: EVQLVETGGGLVEPGGSLRLSCAASGFTFSDAWMNWVRQAPGKGLEWVGRIKSKRSGGTIDYAAPVKDRFTISRDDSKNTLYLQMNSLKIEDTALYYCTWDWDFYYGMNVWGKGTTVTVSSGGGGSGGGGSGGGGSQSVLTQPASVSGSPGQSITISCTGTSSDVGGYNYVSWYQQHPGKAPKLMIYEGSKRPSGVSNRFSGSKSGNTASLTISGLQAEDEADYYCSSYTTRSTRVFGGGTKLTVLG
no binding	GMBC647 (scFv) scFv: EVQLVESGGGLVKPGGSLRLSCAASGFTFSDAWMNWVRQAPGKGLEWVGRIKSKGSGGTIDYAAPVKDRFTISRDDSKNTLYLQMNSLKTEDTALYYCTWDWDFYYGMNVWGQGTTVTVSSGGGGSGGGGSGGGGSQSVLTQPASVSGSPGQSITISCTGTSSDVGGYNYVSWYQQHPGKAPKLMIYEGSKRPSGVSNRFSGSKSGNTASLTISGLQAEDEADYYCSSYTTRSTRVFGGGTKLTVLG
no binding	GMBC613 (scFv) scFv: KVQLVESGGGLVQPGGSLRLSCAASGFTISSHWMSWVRQAPGKGLEWVASIKQDGREKHFVDSVKGRFSISRDNAKNSLYLQMNSLRTEDTAVYYCARETYGGYYYYFMDVWGKGTLVTVSSGGGGSGGGGSGGGGSSELTQDPAVSVALGQTVRITCQGDSLRSYYASWYQQKPGQAPVLVIYGKNNRPSGIPDRFSGSSSGNTASLTITGAQAEDEADYYCNSRDSSGNHVVFGGGTKLTVLG
